Experimental findings from patent EP4671282A1 are described below.

The pEC50 is −log10 of the EC50, conventionally taken in molar units. The low end stands for a high EC50, the high end for a low EC50.

pEC50: −log10 of the molar value. Like-named read-outs stand apart in the source and are kept apart here.

In assay [1] the target is human IL-36R full-length protein stably expressed on CHO-K1 cells (human) (UniProt Q9HB29). Nature of the assay: FACS, CHO-K1 cells overexpressing human IL-36R. On the technique in general: In flow cytometry, cells or beads pass a laser one at a time.
Sequence of human IL-36R full-length protein stably expressed on CHO-K1 cells (human) (Q9HB29 20-575 limits assumed): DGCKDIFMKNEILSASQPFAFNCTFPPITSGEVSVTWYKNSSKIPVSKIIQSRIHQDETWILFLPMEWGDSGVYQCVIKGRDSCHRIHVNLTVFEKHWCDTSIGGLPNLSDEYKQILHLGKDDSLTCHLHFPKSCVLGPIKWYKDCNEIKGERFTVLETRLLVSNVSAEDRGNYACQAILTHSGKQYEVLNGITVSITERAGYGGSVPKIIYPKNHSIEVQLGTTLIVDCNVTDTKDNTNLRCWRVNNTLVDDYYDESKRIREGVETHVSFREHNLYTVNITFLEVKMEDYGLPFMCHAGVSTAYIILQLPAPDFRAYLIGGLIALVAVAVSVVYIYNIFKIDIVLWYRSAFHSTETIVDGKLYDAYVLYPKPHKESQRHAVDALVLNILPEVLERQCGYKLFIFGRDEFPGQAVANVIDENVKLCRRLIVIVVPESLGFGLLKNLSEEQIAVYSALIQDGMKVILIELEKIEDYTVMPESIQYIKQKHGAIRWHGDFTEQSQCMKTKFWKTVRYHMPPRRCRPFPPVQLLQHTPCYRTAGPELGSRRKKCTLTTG
In assay [2] the target is human BAFF (ACROBiosystems, BAF-H52D4) (human) (UniProt Q9Y275). Nature of the assay: ELISA, test sample coated, His-tagged BAFF in solution. A general note: ELISA stands for enzyme-linked immunosorbent assay.
Sequence of human BAFF (ACROBiosystems, BAF-H52D4) (human) (Q9Y275 134-285 limits assumed): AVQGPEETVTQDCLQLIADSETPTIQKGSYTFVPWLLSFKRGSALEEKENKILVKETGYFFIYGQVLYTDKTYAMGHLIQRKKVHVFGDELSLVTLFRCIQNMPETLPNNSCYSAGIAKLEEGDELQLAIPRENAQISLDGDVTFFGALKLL
Assay [3] has as its target human IL-36R full-length protein stably expressed on CHO-K1 cells (human) (UniProt Q9HB29). Nature of the assay: FACS, CHO-K1 cells overexpressing human IL-36R. This is another data set of the same source.

Take hIgG4 (antibody): the Maximum MFI in assay [1] stood at 76 MFI.
“RCT-18, telitacicept (RC18, RemeGen) (Fc fusion)”: in assay [2], the pEC50 is 7.67.
On to hIgG1 (antibody), for which the Maximum MFI in assay [1] came out at 77 MFI; in assay [3], 47 MFI.
